This is an account of results in US20240343771A1 (Chugai, published 2024).

The chains are these.
B1: Anti-IL-12 antibody Ab1 variant Y91M VH/A43Q, L46Q, Y49A VL (antibody, name in Kabat numbering, V domains shown)
VH: QVQLVQSGAEVKKPGSSVKVSCKASGGTFSDYYLHWVRQAPGQGLEWMGWIDPENGDTEYAPKFQGRVTITADESTSTAYMELSSLRSEDTAVYMCARNKELRYFDVWGQGTLVTVSS
VL: DIVMTQSPLSLPVTPGEPASISCRASQSISINLHWYQQKPGQQPRQLIAFASQSISGVPSRFSGSGSGTDFTLTISSLQPEDFATYYCQQSNSFPLTFGQGTKVEIKR
notes: Ab1 with VH/VL interface substitutions; Kabat numbering
B2: Anti-IL-12 antibody Ab1 variant Y91M VH/L46Q, Y49A, Y87M VL (antibody, name in Kabat numbering, V domains shown)
VH: QVQLVQSGAEVKKPGSSVKVSCKASGGTFSDYYLHWVRQAPGQGLEWMGWIDPENGDTEYAPKFQGRVTITADESTSTAYMELSSLRSEDTAVYMCARNKELRYFDVWGQGTLVTVSS
VL: DIVMTQSPLSLPVTPGEPASISCRASQSISINLHWYQQKPGQAPRQLIAFASQSISGVPSRFSGSGSGTDFTLTISSLQPEDFATYMCQQSNSFPLTFGQGTKVEIKR
notes: as for B1
B3: Anti-IL-12 antibody Ab1 variant Y91M VH/A43Q, P44A, Y49A VL (antibody, name in Kabat numbering, V domains shown)
VH: QVQLVQSGAEVKKPGSSVKVSCKASGGTFSDYYLHWVRQAPGQGLEWMGWIDPENGDTEYAPKFQGRVTITADESTSTAYMELSSLRSEDTAVYMCARNKELRYFDVWGQGTLVTVSS
VL: DIVMTQSPLSLPVTPGEPASISCRASQSISINLHWYQQKPGQQARLLIAFASQSISGVPSRFSGSGSGTDFTLTISSLQPEDFATYYCQQSNSFPLTFGQGTKVEIKR
notes: as for B1
B4: Anti-IL-12 antibody Ab1 variant Y91M VH/A43Q, Y49A VL (antibody, name in Kabat numbering, V domains shown)
VH: QVQLVQSGAEVKKPGSSVKVSCKASGGTFSDYYLHWVRQAPGQGLEWMGWIDPENGDTEYAPKFQGRVTITADESTSTAYMELSSLRSEDTAVYMCARNKELRYFDVWGQGTLVTVSS
VL: DIVMTQSPLSLPVTPGEPASISCRASQSISINLHWYQQKPGQQPRLLIAFASQSISGVPSRFSGSGSGTDFTLTISSLQPEDFATYYCQQSNSFPLTFGQGTKVEIKR
notes: as for B1
B5: Anti-IL-12 antibody Ab1 variant Y91M VH/P44A, Y49A VL (antibody, name in Kabat numbering, V domains shown)
VH: QVQLVQSGAEVKKPGSSVKVSCKASGGTFSDYYLHWVRQAPGQGLEWMGWIDPENGDTEYAPKFQGRVTITADESTSTAYMELSSLRSEDTAVYMCARNKELRYFDVWGQGTLVTVSS
VL: DIVMTQSPLSLPVTPGEPASISCRASQSISINLHWYQQKPGQAARLLIAFASQSISGVPSRFSGSGSGTDFTLTISSLQPEDFATYYCQQSNSFPLTFGQGTKVEIKR
notes: as for B1
B6: Anti-IL-12 antibody Ab1 variant Y91M VH/Y49A, Y87L VL (antibody, name in Kabat numbering, V domains shown)
VH: QVQLVQSGAEVKKPGSSVKVSCKASGGTFSDYYLHWVRQAPGQGLEWMGWIDPENGDTEYAPKFQGRVTITADESTSTAYMELSSLRSEDTAVYMCARNKELRYFDVWGQGTLVTVSS
VL: DIVMTQSPLSLPVTPGEPASISCRASQSISINLHWYQQKPGQAPRLLIAFASQSISGVPSRFSGSGSGTDFTLTISSLQPEDFATYLCQQSNSFPLTFGQGTKVEIKR
notes: as for B1
B7: Anti-IL-12 antibody Ab1 variant Y91M VH/Y49A, F98L VL (antibody, name in Kabat numbering, V domains shown)
VH: QVQLVQSGAEVKKPGSSVKVSCKASGGTFSDYYLHWVRQAPGQGLEWMGWIDPENGDTEYAPKFQGRVTITADESTSTAYMELSSLRSEDTAVYMCARNKELRYFDVWGQGTLVTVSS
VL: DIVMTQSPLSLPVTPGEPASISCRASQSISINLHWYQQKPGQAPRLLIAFASQSISGVPSRFSGSGSGTDFTLTISSLQPEDFATYYCQQSNSFPLTLGQGTKVEIKR
notes: as for B1
B8: Anti-IL-12 antibody Ab1 variant Y91M VH/L46Q, Y49A VL (antibody, name in Kabat numbering, V domains shown)
VH: QVQLVQSGAEVKKPGSSVKVSCKASGGTFSDYYLHWVRQAPGQGLEWMGWIDPENGDTEYAPKFQGRVTITADESTSTAYMELSSLRSEDTAVYMCARNKELRYFDVWGQGTLVTVSS
VL: DIVMTQSPLSLPVTPGEPASISCRASQSISINLHWYQQKPGQAPRQLIAFASQSISGVPSRFSGSGSGTDFTLTISSLQPEDFATYYCQQSNSFPLTFGQGTKVEIKR
notes: as for B1

This assay addresses T1, human IL-12 (human, UniProt P29460 23-328; P29459 23-219).
T1 construct: also called Interleukin-12
T1 sequence 1: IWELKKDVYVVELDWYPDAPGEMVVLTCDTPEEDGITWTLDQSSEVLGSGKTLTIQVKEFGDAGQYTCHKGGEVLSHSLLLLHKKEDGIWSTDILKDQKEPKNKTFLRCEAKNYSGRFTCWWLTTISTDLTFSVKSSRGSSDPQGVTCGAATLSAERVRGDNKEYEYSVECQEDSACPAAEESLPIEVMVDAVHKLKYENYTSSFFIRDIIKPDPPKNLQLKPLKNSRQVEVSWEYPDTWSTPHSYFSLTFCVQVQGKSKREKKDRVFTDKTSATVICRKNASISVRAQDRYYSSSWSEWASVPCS
T1 sequence 2: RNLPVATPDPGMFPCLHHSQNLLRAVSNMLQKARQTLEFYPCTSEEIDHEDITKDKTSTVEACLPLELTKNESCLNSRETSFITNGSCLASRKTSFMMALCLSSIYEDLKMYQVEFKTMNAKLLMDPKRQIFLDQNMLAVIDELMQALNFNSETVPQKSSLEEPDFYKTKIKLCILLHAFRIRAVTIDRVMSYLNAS
Briefly: SPR (Biacore T200), 37 C, pH 7.4; captured antibody, IL-12 analyte. The method, then:
The affinity of anti-IL-12 antibodies binding to human IL-12 at pH 7.4 were determined at 37 degrees C. using Biacore T200 instrument (Cytiva). Anti-human Fc antibody (Cytiva) was immobilized onto all flow cells (FCs) of a CM4 sensor chip using amine coupling kit (Cytiva). All antibodies and analytes were prepared in ACES pH 7.4 containing 20 mM ACES, 150 mM NaCl, 0.05% Tween 20, 0.005% NaN₃. Each antibody was captured onto the sensor surface by anti-human Fc antibody. Antibody capture levels were aimed at 50 response unit (RU). 5 nM of human IL-12 were injected as analyte, followed by dissociation. Sensor surface was regenerated each cycle with 3M MgCl₂. […] Based on the results in Table 9, it is observed that binding kinetics of anti-IL-12 antibody AbI variants towards IL-12 were not drastically changed compared to control (−/−).
As to B1, the dissociation constant Kd (as a rule, the concentration at which binding is half-saturated) is 4.41 nM. That is a single-digit nanomolar value.

B2: the affinity, expressed as Kd, was 3.83 nM.

Regarding B3, the affinity, expressed as Kd, was 1.69 nM.

B4 yielded a Kd of 1.87 nM.

As for B5, the Kd stood at 1.83 nM.

Consider B6, for which the Kd worked out at 3.1 nM.

With B7, binding was characterised by a dissociation constant (Kd) of 1.07 nM. This Kd is about 2.9-fold lower than that of the molecule before.

Molecule B8 had an equilibrium dissociation constant (Kd) of 3.83 nM.
